Molecular target: 5c.c7 TCR on 5c.c7 αβ TCR-transgenic CD4+ T-cells (mouse)
Test: flow cytometry on cells; time curve: T-cells labeled with AF555-H57-scFV (1800 ng per 1 Mio T-cells), washed, kept on ice, at room temperature or at 37 °C; samples taken after 0, 5, 10, 30, 60 and 120 min

time after which 50% of receptor:ligand bonds are still intact, room temperature: > 3 h
Substance: fluorescently labeled H57 scFV (J1), TCR β-reactive H57 single-chain fragment

Source: publication PMC12354883
